# Test results from patent US20250188136A1, “AV3 MUTANT POLYPEPTIDES FOR PEST CONTROL” (Vestaron Corporation, priority 2021, published 2025).
# Ends that are not written are not given here.
# Tests used:
# [1] = DASbox small-scale fermentation, degradation by HPLC and LC/MS; type: physicochemical; conditions: DASbox fed batch fermentation runs
# Protocol: DASbox® is a parallel bioreactor system (Eppendorf, 175 Freshwater Blvd, Enfield, CT 06082, USA). The DASbox system used here contains 8 fermentation vessels with 250 mL volume capacity, allowing 8 small scale fermentation runs simultaneously. The DASbox fermentation runs were performed according to the manufacturer's instructions, and using the fermentation conditions described herein.
# The screening of the Av3b mutants was conducted using a fed batch process in aerobic bioreactor. Reactors were initially filled to ˜45% capacity with a rich culture media containing 5-20 g/L of a carbon source such as glucose, sorbitol, or lactose, 5-20 g/L phosphoric acid, 0.1-1.5 g/L Calcium sulfate, 5-15 g/L Potassium sulfate, 0.5-10 g/L Magnesium sulfate heptahydrate, 1-5 g/L potassium hydroxide, and 10-60 g/L of corn steep liquor. The temperature of the reactor was maintained between 25-35° C. for the duration of the fermentation. The pH was held constant between 4-5.5 with the addition of 15% ammonium hydroxide. Dissolved oxygen was held constant by sparging air between 0.5-1.5 volume/volume/min and by increasing agitation to maintain a set point of 10-30%.
# Inoculation of the reactor was from an overnight seed culture containing 5-40 g/L of a carbon source such as glucose, sorbitol, or lactose, and 5-40 g/L of corn steep liquor. Inoculation percentage ranged from 5-20% of initial fill volume. Once inoculated, the reactor was fed with a 70% solution of the selected carbon source until the reactor was filled and/or desired supernatant peptide concentration was achieved, approximately 96-140 hours and 0.8-1.2 g/L, respectively.
# [2] = Circular dichroism assay, melting temperature; type: physicochemical; conditions: 10 mM Na3PO4 solution, pH 5.9; 20° C. to 98° C.
# Protocol: A JASCO J-1500 CD spectrometer (JASCO, 28600 Mary's Court, Easton, MD 21601 USA) was used to measure the CD spectrum and the secondary structure information of the Av3bM24, Av3bM165, Av3bM103, and Av3bM170 peptides (with Av3b as a comparator). The peptides were prepared in 10 mM Na3PO4 solution, pH 5.9, and loaded into the cuvette for CD spectrum measurement. Measurements were processed with a light wavelength scan ranging from 180 nm to 250 nm, with a 1 nm interval; the temperature graduate changed from 20° C. to 98° C., with 2° C. interval.
# [3] = Stability of Av3b mutants in insect gut extract; type: in vitro ADME, Helicoverpa zea; conditions: H. zea gut extract digestion, room temperature
# Protocol: To test the stability of the Av3b mutants in the gut enzymes of a lepidopteran pest, the gut extract were prepared from Helicoverpa zea (Corn Earworm or “CEW”). Corn Earworm insects were obtained commercially from Benzon Research (Carlisle, PA) as eggs. Hatched larvae were raised on artificial diet until ⅘^th instar (20 mm long) before guts were isolated. Before gut extraction, larvae were anesthetized using CO2. The larva was then pinned on the dissection plate at both the head and the tail. Using dissection scissors, the cuticle was nicked. The dissection scissors were then inserted into the nick and the […] along the insect. The cuticle was then carefully pulled back and pinned open to reveal the digestive track. Using DI water, the insect was thoroughly rinsed to remove hemolymph.
# After the insect guts were extracted from the larva, they were spun at 15000 rpm for 5 minutes. The resulting supernatant is the “insect gut extract” that was used to determine peptide stability. Av3b mutant peptide was mixed with the gut extract to […] of 2 μg/μL, and incubated at room temperature. At time points between 0-100 hours, 6 μL of a given sample was mixed with 93 μL dH2O followed by the addition of 1 μL of a 2% trifluoracetic acid solution to stop the reaction. The sample was then analyzed by rpHPLC to determine the peptide loss during the gut extract treatment.
# [4] = test system: Spodoptera frugiperda; assay: Lepidoptera injection assay, fall armyworm (FAW); type: in vivo; conditions: third instar larva, 2 μL injection, scored at 24-hours post-injection
# Protocol: An injection assay was performed on Helicoverpa zea (corn earworm or “CEW”) and Spodoptera frugiperda (fall armyworm or “FAW”). Injections comprised a given Av3b mutant peptide combined with water to arrive at the planned dose. The Av3b mutants included Av3bM24; Av3bM165; Av3bM103; and Av3bM170. Av3b was used as a control.
# Insects were reared on an artificial diet prepared from General Purpose Lepidoptera diet (Frontier Scientific, Newark, DE 19713, product No. F9772) according to the manufacturer's instructions. To perform the insect injection bioassay, 5 mL of hot diet was dispensed into the well of a rearing tray (Bio-Service Inc., Bio-RT-32), with 8 wells per injection treatment. The hot diet was then allowed to cool and solidify. Next, third instar larva were incubated on ice in order to immobilize them. Injections were prepared on a hand-microapplicator with injection solution (>100 μL) in 1-cc all-glass syringe having a 30 gauge straight needle. Air bubbles were removed from the syringe, and the syringe was set it up on the microapplicator. Injection volume was adjusted in the microapplicator at 2 μL.
# To inject the larva, the insects were picked up and positioned close to the injection needle. The needle was allowed to penetrate the cuticle of the third pro-leg of the larva. The injection knob of the microapplicator was then rotated to inject a 2 μL solution into hemolymph from the third pro-leg. After injection the larva maintained on the needle for a few seconds to make sure the injected solution was absorbed. Then, the larva were gently removed from the needle and placed into the wells of prepared tray, along with 5 mL of solidified diet per well. Finally, the tray was sealed with vent covers.
# Injected larva were incubated at 28° C. in an insect incubator, and scored at 24-hours post-injection based on their condition. Insect conditions were categorized as follows: alive (walking, eating, normal behavior); affected (showing toxic symptoms, such as tremors, writhing, unbalanced gait, or a combination thereof), knockdown (paralyzed albeit able to move with gentle poke); and dead (unmoving, discoloration, or a combination thereof).
# [5] = Thermo-stability at 54° C. in pH 4.0 solution; type: physicochemical
# Protocol: A thermo-stability study was performed for Av3b, Av3bM24, Av3bM165, Av3bM103, and Av3bM170 in a pH 4.0 solution at 54° C. for 0, 3, 7, 10, 12, and 14 days, with a caffeine internal control to cancel variation from evaporation. Samples of 1 mL were prepared in 1.5 mL microtube with sodium acetate buffer (NaOAc) at pH 4.0, containing 0.1 μg/μL of peptide, and 0.025 μg/μL of caffeine. The samples were incubated at 54° C. in a dry mixer. At 0, 3, 7, 10, 12, and 14 days, 20 μL of each sample was analyzed via analytic rpHPLC system to evaluate peptide loss. Each sample contained a fixed amount caffeine, which was used to compensate the peptide HPLC UV absorbance peak change due to volume change by evaporation. FIG. 68.
sequence,measurement,setting,value
KSCCPCYWGGCPWGQNCYPEGCDGPK (ends and bridges not checked; cysteine pairing not given here) [Av3bM24],degradation detected via HPLC and LC/MS,[1],degradation was detected
same,CD Melting temperature,[2],80 °C
same,resistance to degradation in gut extract,[3],most resistant to degradation
same,KD50 FAW,[4],949 pmol/g
same,peptide change on day 14,"[5]; pH 4.0, 54° C., HPLC peak area, + mass increase, − mass loss",−29.5%
same,thermo-stability at 54° C.,"[5]; pH 4.0 solution, up to 14 days",not thermo-stable
